The values below come from US20260103503A1.

Test [1] concerns the target NY-ESO-1 peptide on HLA-A*02:01 (human). Nature of the test: SPR as tabulated in Table 2 (BIAcore analysis); reference TCR; soluble, other. For orientation: SPR reads the build-up and loss of mass on a sensor chip optically.
Test [2] addresses Tm NY-ESO (human). Nature of the test: flow cytometry, tetramer staining of transduced CD8+ T cells; nt control Q2 0.79. Background: In flow cytometry, cells or beads pass a laser one at a time.
Test [3] addresses Tm NY-ESO (human). Nature of the test: flow cytometry, tetramer staining of transduced CD8+ T cells; nt control Q1 0.084.
The target in test [4] is Tm NY-ESO (human). In words: flow cytometry, tetramer staining of transduced CD4+ T cells; nt control Q1 0.020.
Test [5] has as its target Tm NY-ESO (human). Nature of the test: flow cytometry, tetramer staining of transduced CD4+ T cells; nt control Q2 0.56.

As usually defined, the Kd is the concentration at which binding is half-saturated. High values mean a looser complex, low ones a tighter complex. As usually defined, the koff is the rate constant with which the complex falls apart. The kon is the second-order rate constant of association. As for 1G4, in test [1], the dissociation constant (Kd) is 14.2 µM, the off-rate constant (koff) was 0.12 s⁻¹ and the kon is 17000 M⁻¹ s⁻¹.

1G4LY TCR on transduced T cells registered a Q2 (Tm NY-ESO+ CD8+), percent of cells in test [2] of 64.9%. This substance displayed a Q1 (Tm NY-ESO+ CD8-), percent of cells in test [3] of 2.53%. In test [4], the Q1 (Tm NY-ESO+ CD4-), percent of cells was 0.89%. This substance also displayed a Q2 (Tm NY-ESO+ CD4+), percent of cells in test [5] of 63.2%.
